This note sets out measurements from the supplement of paper PMC7877785.

A short description of the series: self-splicing fitness, log relative to wild type (ln ratio); higher = more splicing; Tetrahymena group I intron in knt gene, E. coli kanamycin selection, DiMSum; sequences stand for … in CUCUCU…GGAGGGAAAAGUUAUCAGGCAUGCACCUGGUAGCUAGUCUUUAAACCAAUAGAUUGCAUCGGUUUAAAAGGCAAGACCGUCAAAUUGCGGGAAAGGGGUCAACAGCCGUUCAGUACCAAGUCUCAGGGGAAACUUUGAGAUGGCCUUGCAAAGGGUAUGGUAAUAAGCUGACGGACAUGGUCCUAACCACGCAGCCAAGUCCUAAGUCAACAGAUCUUCUGUUGAUAUGGAUGCAGUUCACAGACUAAAUGUCGGUCGGGGAAGAUGUAUUCUUCUCAUAAGAUAUAGUCGGACCUCUCCUUAAUGGGAGCUAGCGGAUGAAGUGAUGCAACACUGGAGCCGCUGGGAACUAAUUUGUAUGCGAAAGUAUAUUGAUUAGUUUUGGAGUACUCGUGGUCG
The gist of the method: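 DiMSum derived fitness as the error-weighted combination of fold changes across replicates, kanamycin versus no kanamycin, normalised to wild type. E. coli BL21(DE3) held the library, which randomised all eight P1ex-region intron nucleotides within the knt kanamycin-resistance gene on pET-22b(+). Six replicate transformations grew overnight at 37°C or 30°C on LB agar with or without 25 μg/mL kanamycin, also containing 100 μg/mL carbenicillin, 50 μM IPTG and 0.2% rhamnose, and pooled colonies were amplicon-sequenced on an Illumina HiSeq 2500.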

± gives the uncertainty stated by the source.

As to AGAGAGCAAUAUUACGCAAU, the “self-splicing fitness (ln)” value (30 °C) was -3.58 ± 0.43 and the “self-splicing fitness (ln)” value (37 °C) was -2.48 ± 0.29. For GCUAAGCAAUAUUACGGGUG, in that order: -1.24 ± 0.069 and 0.116 ± 0.079. Consider GGUAAGCAAUAUUACGCGUC, for which the “self-splicing fitness (ln)” value is, setting by setting: (30 °C) -1.95 ± 0.2; (37 °C) 0.649 ± 0.18.

Turning to AAUGAGCAAUAUUACGUAAG, the “self-splicing fitness (ln)” value (30 °C) is -2.38 ± 0.22 and the “self-splicing fitness (ln)” value (37 °C) was -2.2 ± 0.23. For ACACAGCAAUAUUACGUUCC, in that order: -2.17 ± 0.088 and -1.29 ± 0.1. For UCGAAGCAAUAUUACGCAAA, under “37 °C”, the “self-splicing fitness (ln)” value is -3.16 ± 0.4. Consider ACCGAGCAAUAUUACGUUUU, for which the “self-splicing fitness (ln)” value (30 °C) is -3.3 ± 0.15 and the “self-splicing fitness (ln)” value (37 °C) was -2.59 ± 0.15. The like results for UAGUAGCAAUAUUACGUACU were, in that order, -0.816 ± 0.12 and -0.109 ± 0.12. In the case of AAUGAGCAAUAUUACGGUAU, the “self-splicing fitness (ln)” value (37 °C) was -1.81 ± 0.19.

As to CACAAGCAAUAUUACGACCC, the “self-splicing fitness (ln)” value runs as follows: (30 °C) -2.15 ± 0.4; (37 °C) -0.814 ± 0.24.

In the case of CUGGAGCAAUAUUACGGCCA, where the note is “37 °C”, the “self-splicing fitness (ln)” value was -1.99 ± 0.24.

GUGAAGCAAUAUUACGGUGG: the “self-splicing fitness (ln)” value runs as follows: (30 °C) -1.97 ± 0.098; (37 °C) -1.78 ± 0.16. For GCCUAGCAAUAUUACGUAGU, in that order: -0.126 ± 0.068 and 0.357 ± 0.088. For CAUCAGCAAUAUUACGAUGA, in that order: -2.62 ± 0.24 and -0.687 ± 0.15. On to ACAUAGCAAUAUUACGGUAU, for which the “self-splicing fitness (ln)” value was -3.6 ± 0.11 (30 °C) and -1.77 ± 0.11 (37 °C). The like results for UUUGAGCAAUAUUACGACUU were, in that order, -3.13 ± 0.34 and -2.28 ± 0.37. The like results for CAGAAGCAAUAUUACGCCUA were, in that order, -0.835 ± 0.12 and -0.744 ± 0.093.

Regarding UGUAAGCAAUAUUACGAUCU, the “self-splicing fitness (ln)” value was 0.361 ± 0.11 (30 °C) and 0.0759 ± 0.13 (37 °C). For ACAAAGCAAUAUUACGAAUU, the “self-splicing fitness (ln)” value (30 °C) was -3.38 ± 0.2 and the “self-splicing fitness (ln)” value (37 °C) was -2.12 ± 0.18.

With CAUCAGCAAUAUUACGGGCA, the “self-splicing fitness (ln)” value is -2.51 ± 0.12 (30 °C) and -1.83 ± 0.14 (37 °C).

Consider CAUCAGCAAUAUUACGAUUA, for which the “self-splicing fitness (ln)” value is, setting by setting: (30 °C) -0.634 ± 0.091; (37 °C) -0.682 ± 0.085. For CGCGAGCAAUAUUACGCUUG, in that order: -3.06 ± 0.2 and -1.46 ± 0.22. For the sequence AGGAAGCAAUAUUACGCCCU, the “self-splicing fitness (ln)” value (30 °C) is -2.95 ± 0.33. On to CAGAAGCAAUAUUACGAUAG, for which the “self-splicing fitness (ln)” value is -0.588 ± 0.075 (30 °C) and 0.256 ± 0.093 (37 °C). The like results for CGUCAGCAAUAUUACGACAA were, in that order, -0.159 ± 0.14 and 0.0303 ± 0.14. The like results for GGCUAGCAAUAUUACGGGUC were, in that order, -2.91 ± 0.28 and -2.26 ± 0.24. As for AAUCAGCAAUAUUACGAUUG, the “self-splicing fitness (ln)” value is -1.54 ± 0.064 (30 °C) and -0.631 ± 0.085 (37 °C).

Take UUUCAGCAAUAUUACGGAGA: the “self-splicing fitness (ln)” value (30 °C) was -1.26 ± 0.14 and the “self-splicing fitness (ln)” value (37 °C) is -1.13 ± 0.22. The like results for UUAUAGCAAUAUUACGGUGG were, in that order, -0.966 ± 0.11 and -0.924 ± 0.12.

Regarding GUCAAGCAAUAUUACGGUGG, the “self-splicing fitness (ln)” value (30 °C) was -4.45 ± 0.15 and the “self-splicing fitness (ln)” value (37 °C) was -3.19 ± 0.17.

Regarding CCAUAGCAAUAUUACGGACA, the “self-splicing fitness (ln)” value is, setting by setting: (30 °C) -3.36 ± 0.23; (37 °C) -1.14 ± 0.16. For CAGGAGCAAUAUUACGUUCC, in that order: -3.33 ± 0.23 and -2.04 ± 0.27. For the sequence UUGUAGCAAUAUUACGAAUG, the “self-splicing fitness (ln)” value runs as follows: (30 °C) -3.32 ± 0.41; (37 °C) -1.93 ± 0.29.

CGACAGCAAUAUUACGAGGU: the “self-splicing fitness (ln)” value is -3.14 ± 0.33 (30 °C) and -1.73 ± 0.2 (37 °C). CUGGAGCAAUAUUACGAGGA: for the setting “30 °C”, the “self-splicing fitness (ln)” value was -3.18 ± 0.33. For the sequence AUAUAGCAAUAUUACGUUUA, the “self-splicing fitness (ln)” value runs as follows: (30 °C) -2.02 ± 0.25; (37 °C) -1.63 ± 0.2. Regarding CAAUAGCAAUAUUACGAGGU, the “self-splicing fitness (ln)” value was -4.24 ± 0.28 (30 °C) and -1.93 ± 0.21 (37 °C). For UUGCAGCAAUAUUACGAUCG, in that order: -1.13 ± 0.1 and -0.473 ± 0.14. With CUGAAGCAAUAUUACGGUUU, the “self-splicing fitness (ln)” value was -3.24 ± 0.22 (30 °C) and -2.72 ± 0.18 (37 °C).
